These results are taken from patent US5739291A, “Glutamate receptor antibodies” (The Salk Institute For Biological Studies, priority 1995, dated 1998).

The target of the assay is T1, homomeric GluR6 receptor (Rattus norvegicus, UniProt P42260, I567V/Q621R/Y571C).
T1 construct: A 4559 base pair cDNA encoding a protein of 884 amino acid residues was engineered from RC11 and RC27; expressed in transfected cells; host or cells: Xenopus oocytes injected with in vitro transcribed GluR6 RNA
The assay can be described thus: Homomeric GluR6 ion channel in Xenopus oocytes injected with in vitro transcribed RNA. Format: cell-based.

T1 sequence (P42260 with tags, fused parts or gaps I567V/Y571C/Q621R): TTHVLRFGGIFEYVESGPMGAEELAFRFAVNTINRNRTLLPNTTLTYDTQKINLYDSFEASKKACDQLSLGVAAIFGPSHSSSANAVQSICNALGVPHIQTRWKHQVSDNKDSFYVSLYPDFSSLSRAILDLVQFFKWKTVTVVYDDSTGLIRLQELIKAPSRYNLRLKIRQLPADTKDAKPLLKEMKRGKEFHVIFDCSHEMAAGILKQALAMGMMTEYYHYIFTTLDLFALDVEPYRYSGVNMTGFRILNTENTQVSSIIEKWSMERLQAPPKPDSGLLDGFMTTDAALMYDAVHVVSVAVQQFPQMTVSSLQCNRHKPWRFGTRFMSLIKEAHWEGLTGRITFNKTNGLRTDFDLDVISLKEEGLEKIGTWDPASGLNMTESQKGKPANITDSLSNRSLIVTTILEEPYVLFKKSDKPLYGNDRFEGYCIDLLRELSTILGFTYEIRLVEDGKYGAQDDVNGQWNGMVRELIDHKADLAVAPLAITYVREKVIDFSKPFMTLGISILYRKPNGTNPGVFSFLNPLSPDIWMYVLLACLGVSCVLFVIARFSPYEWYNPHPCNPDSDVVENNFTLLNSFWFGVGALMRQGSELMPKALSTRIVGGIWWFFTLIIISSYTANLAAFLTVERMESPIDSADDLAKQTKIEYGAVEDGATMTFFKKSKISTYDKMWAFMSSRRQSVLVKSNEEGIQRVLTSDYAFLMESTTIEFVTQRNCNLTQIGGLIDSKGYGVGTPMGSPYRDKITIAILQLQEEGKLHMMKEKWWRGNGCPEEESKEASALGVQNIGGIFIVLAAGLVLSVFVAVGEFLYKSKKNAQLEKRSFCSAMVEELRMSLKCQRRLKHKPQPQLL

B1: concanavalin A (protein)
chain: STHETNALHFMFNQFSKDQKDLILQGDATTGTDGNLELTRVSSNGSPQGSSVGRALFYAPVHIWESSAVVASFEATFTFLIKSPDSHPADGIAFFISNIDSSIPSGSTGRLLGLFPDANVIRNSTTIDFNAAYNADTIVAVELDTYPNTDIGDPSYPHIGIDIKSVRSKKTAKWNMQNGKVGTAHIIYNSVDKRLSAVVSYPNADSATVSYDVDLDNVLPEWVRVGLSASTGLYKETNTILSWSFTSKLKSN
notes: concanavalin A, used to decrease receptor desensitization
With B1, the effect on desensitization result (10 μM for 5 minutes) is “efficiently decreases desensitization”. In addition, for the setting “equimolar agonist concentrations”, the “increase of current elicited by kainate and glutamate compared to peak current before treatment” value was in the range of 75 to 150 fold.
